We go through 19 molecules from patent US8637024 (dated 2014).

Substitutions are numbered along the chain they refer to. Names and notes keep the numbering of the source. Read-outs that look alike come from different tables or passages of the source.

The target of test [1] is T1, human soluble CD4 (sCD4) (human, UniProt P01730). The test can be described thus: competition ELISA. On the technique in general: An ELISA detects its analyte on a solid surface through an enzyme-linked reagent.
In test [2] the target is T1, human soluble CD4 (sCD4).
The target in test [3] is T1, human soluble CD4 (sCD4). The source holds these as a separate data set.
Test [4] addresses T1, human soluble CD4 (sCD4). Kind of test: SPR. In general terms: SPR reads the build-up and loss of mass on a sensor chip optically.
Test [5] addresses T1, human soluble CD4 (sCD4). Kind of test: SPR. This is another data set of the same source.

B1: m36 (antibody, V domains shown)
VH: QVQLVQSGGGLVQPGGSLRLSCAASAFDFSDYEMSWVRQAPGKGLEWIGEINDSGNTIYNPSLKSRVTISRDNSKNTLYLQMNTLRAEDTAIYYCAIYGGNSGGEYWGQGTLVTVSS
For B1, in the test with human soluble CD4 (sCD4) [1], the binding result is “no binding”.

B2: iMabΔm36 (iMab arm) (antibody)
chain 1: MEWSGVFMFLLSVTAGVHSQVQLQQSGPEVVKPGASVKMSCKASGYTFTSYVIHWVRQKPGQGLDWIGYINPYNDGTDYDEKFKGKATLTSDTSTSTAYMELSSLRSEDTAVYYCARAKDNAATGAWFAYWGQGTLVTVSSASTKGPSVFPLAPSSKSTSGGTAALGCLVKDYFPEPVTVSWNSGALTSGVHTFPAVLQSSGLYSLSSVVTVPSSSLGTQTYICNVNHKPSNTKVDKKVEPKSCDKTHTCPPCPAPEFEGGPSVFLFPPKPKDTLMISRTPEVTCVVVDVSHEDPEVKFNWYVDGVEVHNAKTKPREEQYNSTYRVVSVLTVLHQDWLNGKEYKCKVSNKALPASIEKTISKAKGQPREPQVYTLPPSRDELTKNQVSLTCLVKGFYPSDIAVEWESNGQPENNYKTTPPVLDSDGSFFLYSKLTVDKSRWQQGNVFSCSVLHEALHSHYTQKSLSLSPGKLEGGGGSGGGGSGGGGSGQVQLVQSGGGLVQPGGSLRLSCAASAFDFSDYEMSWVRQAPGKGLEWIGEINDSGNTIYNPSLKSRVTISRDNSKNTLYLQMNTLRAEDTAIYYCAIYGGNSGGEYWGQGTLVTVSS
chain 2: not shown
As to B2, in the test with human soluble CD4 (sCD4) [1], the binding result is on record as “no binding”.

B3: SQTLH (clone 33) (antibody, V domains shown)
VH: QVQLQQSGPEVVKPGASVKMSCKASGYTFTSQTLHWVRQKPGQGLDWIGYINPYNDGTDYDEKFKGKATLTSDTSTSTAYMELSSLRSEDTAVYYCAREKDNYATGAWFAYWGQGTLVTVSS
VL: DIVMTQSPDSLAVSLGERVTMNCKSSQSLLYSTNQKNYLAWYQQKPGQSPKLLIYWASTRESGVPDRFSGSGSGTDFTLTISSVQAEDVAVYYCQQYYSYRTFGGGTKLEIK
For the molecule B3, the Kd in the test with human soluble CD4 (sCD4) [2] and in the test with human soluble CD4 (sCD4) [3] was 0.012 nM throughout.

B4: M28 (CDR-H1 DYTFH) (antibody, V domains shown)
VH: B3 VH with S31D, Q32Y, L34F
VL: B3 VL
Take B4: the Kd was 0.0132 nM in the test with human soluble CD4 (sCD4) [2], 0.0132 nM in the test with human soluble CD4 (sCD4) [3] and 0.014 nM with human soluble CD4 (sCD4) [4].

B5: ML1 (CDR-H1 SRVLS) (antibody, V domains shown)
VH: B3 VH with Q32R, T33V, H35S
VL: B3 VL
As for B5, the results for the dissociation constant Kd with human soluble CD4 (sCD4) [5] and with human soluble CD4 (sCD4) [2] were 2.14 nM and 2.13 nM, respectively.

B6: AQTLH (clone 30) (antibody, V domains shown)
VH: B3 VH with S31A
VL: B3 VL
Take B6: the Kd with human soluble CD4 (sCD4) [2] and with human soluble CD4 (sCD4) [3] was 0.0107 nM throughout.

B7: NQTLH (clone 26, 36) (antibody, V domains shown)
VH: B3 VH with S31N
VL: B3 VL
Take B7: the affinity with human soluble CD4 (sCD4) [3], expressed as Kd, was 0.0406 nM.

B8: ML11 (antibody, V domains shown)
VH: B3 VH with Q32Y, T33V, L34I, A97V, N102S, Y103F
VL: B3 VL
Turning to B8, the figures for the dissociation constant Kd with human soluble CD4 (sCD4) [5] and with human soluble CD4 (sCD4) [2] were 6.72 nM and 2.47 nM, respectively.

B9: ML28 (antibody, V domains shown)
VH: B3 VH with Q32Y, T33V, L34I, T105V, G106P, A107G
VL: B3 VL
Turning to B9, the dissociation constant (Kd) in the test with human soluble CD4 (sCD4) [5] amounted to 1.76 nM; with human soluble CD4 (sCD4) [2], 1.41 nM.

B10: DQTLH (clone 27, 31) (antibody, V domains shown)
VH: B3 VH with S31D
VL: B3 VL
Consider B10, for which the equilibrium dissociation constant (Kd) with human soluble CD4 (sCD4) [2] and with human soluble CD4 (sCD4) [3] was 0.015 nM each time.

B11: M24 (CDR-H1 EQTLH) (antibody, V domains shown)
VH: B3 VH with S31E
VL: B3 VL
With B11, the Kd with human soluble CD4 (sCD4) [5] worked out at 0.0042 nM; with human soluble CD4 (sCD4) [2], 0.0097 nM; with human soluble CD4 (sCD4) [3] it was 0.0097 nM; with human soluble CD4 (sCD4) [4], 0.018 nM.

B12: EYTFH (clone 40) (antibody, V domains shown)
VH: B3 VH with S31E, Q32Y, L34F
VL: B3 VL
As for B12, the dissociation constant (Kd) with human soluble CD4 (sCD4) [2] and in the test with human soluble CD4 (sCD4) [3] was 0.0112 nM in each case.

B13: M3 (CDR-H1 EYTIH) (antibody, V domains shown)
VH: B3 VH with S31E, Q32Y, L34I
VL: B3 VL
As to B13, binding with human soluble CD4 (sCD4) [4] was put at a Kd of 0.033 nM.

B14: M22 (CDR-H1 DYTIH) (antibody, V domains shown)
VH: B3 VH with S31D, Q32Y, L34I
VL: B3 VL
For the molecule B14, the Kd with human soluble CD4 (sCD4) [2] came to 0.0346 nM; with human soluble CD4 (sCD4) [3], 0.0346 nM; with human soluble CD4 (sCD4) [4], 0.047 nM.

B15: ML29 (antibody, V domains shown)
VH: B3 VH with Q32Y, T33V, L34I, N102S, Y103L, A104T
VL: B3 VL
B15: the figures for the Kd with human soluble CD4 (sCD4) [5] and with human soluble CD4 (sCD4) [2] were 4.83 nM and 2.23 nM, respectively.

B16: ML26 (antibody, V domains shown)
VH: B3 VH with Q32Y, T33V, L34I, E99Q, K100A, D101A
VL: B3 VL
Take B16: the values for the Kd with human soluble CD4 (sCD4) [5] and in the test with human soluble CD4 (sCD4) [2] were 4.14 nM and 3.64 nM, respectively.

B17: SQTIH (clone 23) (antibody, V domains shown)
VH: B3 VH with L34I
VL: B3 VL
With B17, the Kd with human soluble CD4 (sCD4) [2] and in the test with human soluble CD4 (sCD4) [3] was 0.0192 nM each time.

B18: E95A (antibody, V domains shown)
VH: B3 VH with Q32Y, T33V, L34I, E99A
VL: B3 VL
On to B18, for which the Kd with human soluble CD4 (sCD4) [4] turned out to be 7.7 nM.

B19: GQTLH (clone 25, 37) (antibody, V domains shown)
VH: B3 VH with S31G
VL: B3 VL
For B19, the Kd with human soluble CD4 (sCD4) [3] was determined as 0.0173 nM.

For orientation: Kd means the equilibrium constant for the complex coming apart.
